± gives the standard error. For some assays here: Fewer inactive variants are shown than the library holds.
B1: glmS ribozyme (parent)
chain: AUAAAAGCGCCAGAACUACAGAAAUGUAGUUGACGAGGAGGAGGUUUAUCGAAUUUUCGGCGGAUGCCUCCAAA

Columns and labels:
Conditions in all cases: with glucosamine-6-phosphate
[1] = variants of: B1; experiment: kcat; higher = faster cleavage; RNA array
Outline: (§1)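 Barcoded ribozyme variants were transcribed in situ on sequenced MiSeq chips by E. coli RNA polymerase. At 37 °C, a hybridised Cy3 probe tracked them while glucosamine-6-phosphate (40 μM to 10 mM) in HEPES/KCl/Mg(OAc)2 buffer flowed in and tiles were imaged over ~14 h. Per-tile medians of signals normalised to baseline and to non-cleaving reference variants were fit to one- or two-exponential decays, giving kobs. kcat and KM came from weighted Michaelis–Menten fits across concentrations.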

[2] = variants of: B1; experiment: self-cleavage kobs at 2500 uM GlcN6P; higher = faster cleavage; RNA array
Outline: as §1

[3] = variants of: B1; experiment: self-cleavage kobs at 10000 uM GlcN6P; higher = faster cleavage; RNA array
Outline: as §1

[4] = variants of: B1; experiment: KM; higher = weaker cofactor use; RNA array
Outline: as §1

[5] = variants of: B1; experiment: self-cleavage kobs at 640 uM GlcN6P; higher = faster cleavage; RNA array
Outline: as §1

[6] = variants of: B1; experiment: self-cleavage kobs at 40 uM GlcN6P; higher = faster cleavage; RNA array
Outline: as §1

[7] = variants of: B1; experiment: self-cleavage kobs at 160 uM GlcN6P; higher = faster cleavage; RNA array
Outline: as §1

C11U U45C
kcat [1]: 9.44e-05 ± 1.8e-05 s⁻¹ | self-cleavage kobs at 2500 uM GlcN6P [2]: 6.5e-05 ± 1.3e-05 s⁻¹ | self-cleavage kobs at 10000 uM GlcN6P [3]: 7.59e-05 ± 1e-05 s⁻¹

A12G U69G
kcat [1]: 7.83e-05 ± 2.6e-06 s⁻¹ | KM [4]: 285 ± 71 µM | self-cleavage kobs at 640 uM GlcN6P [5]: 5.05e-05 ± 1.9e-05 s⁻¹ | self-cleavage kobs at 2500 uM GlcN6P [2]: 7.46e-05 ± 1.5e-05 s⁻¹ | self-cleavage kobs at 10000 uM GlcN6P [3]: 7.47e-05 ± 1.1e-05 s⁻¹

G13A U65A
kcat [1]: 0.000116 ± 3.9e-05 s⁻¹ | self-cleavage kobs at 40 uM GlcN6P [6]: < 1e-05 s⁻¹ | self-cleavage kobs at 2500 uM GlcN6P [2]: 2.1e-05 ± 9.1e-06 s⁻¹ | self-cleavage kobs at 10000 uM GlcN6P [3]: 5.81e-05 ± 8.7e-06 s⁻¹

A12C G32A
kcat [1]: 0.00031 ± 2.5e-05 s⁻¹ | KM [4]: 3110 ± 470 µM | self-cleavage kobs at 640 uM GlcN6P [5]: 5.72e-05 ± 1e-05 s⁻¹ | self-cleavage kobs at 2500 uM GlcN6P [2]: 0.000129 ± 1.8e-05 s⁻¹ | self-cleavage kobs at 10000 uM GlcN6P [3]: 0.000244 ± 3.1e-05 s⁻¹

A12C G32C
kcat [1]: 2.92e-05 ± 1.3e-06 s⁻¹ | KM [4]: 3260 ± 500 µM | self-cleavage kobs at 40 uM GlcN6P [6]: < 1e-05 s⁻¹ | self-cleavage kobs at 10000 uM GlcN6P [3]: 2.2e-05 ± 6.6e-06 s⁻¹

A12U A15U A39C
kcat [1]: 0.000282 ± 8.6e-05 s⁻¹ | self-cleavage kobs at 160 uM GlcN6P [7]: 6.33e-05 ± 1.3e-05 s⁻¹ | self-cleavage kobs at 640 uM GlcN6P [5]: 9.89e-05 ± 1.6e-05 s⁻¹ | self-cleavage kobs at 2500 uM GlcN6P [2]: 0.000199 ± 3.2e-05 s⁻¹ | self-cleavage kobs at 10000 uM GlcN6P [3]: 0.000374 ± 8.8e-05 s⁻¹

C11U A12G
kcat [1]: 0.00116 ± 0.00011 s⁻¹ | KM [4]: 1760 ± 310 µM | self-cleavage kobs at 160 uM GlcN6P [7]: 9.07e-05 ± 1.3e-05 s⁻¹ | self-cleavage kobs at 640 uM GlcN6P [5]: 0.000315 ± 4.3e-05 s⁻¹ | self-cleavage kobs at 2500 uM GlcN6P [2]: 0.00079 ± 8.1e-05 s⁻¹ | self-cleavage kobs at 10000 uM GlcN6P [3]: 0.000933 ± 8.4e-05 s⁻¹

C11U A12U
kcat [1]: 0.00624 ± 0.00051 s⁻¹ | KM [4]: 1290 ± 150 µM | self-cleavage kobs at 40 uM GlcN6P [6]: 0.000179 ± 1.8e-05 s⁻¹ | self-cleavage kobs at 160 uM GlcN6P [7]: 0.000886 ± 0.00016 s⁻¹ | self-cleavage kobs at 640 uM GlcN6P [5]: 0.00209 ± 0.00035 s⁻¹ | self-cleavage kobs at 2500 uM GlcN6P [2]: 0.00418 ± 0.00075 s⁻¹ | self-cleavage kobs at 10000 uM GlcN6P [3]: 0.00547 ± 0.00057 s⁻¹

A12C G43A
kcat [1]: 6.99e-05 ± 1.2e-05 s⁻¹ | KM [4]: 1870 ± 800 µM | self-cleavage kobs at 2500 uM GlcN6P [2]: 3.76e-05 ± 8.6e-06 s⁻¹ | self-cleavage kobs at 10000 uM GlcN6P [3]: 6.33e-05 ± 1.9e-05 s⁻¹

A12U A42U
kcat [1]: 0.000531 ± 7.4e-05 s⁻¹ | KM [4]: 1240 ± 330 µM | self-cleavage kobs at 160 uM GlcN6P [7]: 5.09e-05 ± 7.4e-06 s⁻¹ | self-cleavage kobs at 640 uM GlcN6P [5]: 0.000198 ± 1.9e-05 s⁻¹ | self-cleavage kobs at 2500 uM GlcN6P [2]: 0.000402 ± 3.2e-05 s⁻¹ | self-cleavage kobs at 10000 uM GlcN6P [3]: 0.000411 ± 4.6e-05 s⁻¹

A12G U30A
kcat [1]: 0.00011 ± 1.9e-06 s⁻¹ | KM [4]: 2890 ± 160 µM | self-cleavage kobs at 2500 uM GlcN6P [2]: 5.17e-05 ± 9.7e-06 s⁻¹ | self-cleavage kobs at 10000 uM GlcN6P [3]: 8.52e-05 ± 7.5e-06 s⁻¹

A12C U30G
kcat [1]: 0.00614 ± 0.0015 s⁻¹ | KM [4]: 5240 ± 1800 µM | self-cleavage kobs at 40 uM GlcN6P [6]: 6.93e-05 ± 1.4e-05 s⁻¹ | self-cleavage kobs at 160 uM GlcN6P [7]: 0.000166 ± 3.1e-05 s⁻¹ | self-cleavage kobs at 640 uM GlcN6P [5]: 0.000671 ± 0.00015 s⁻¹ | self-cleavage kobs at 2500 uM GlcN6P [2]: 0.00164 ± 0.00034 s⁻¹ | self-cleavage kobs at 10000 uM GlcN6P [3]: 0.00422 ± 0.00051 s⁻¹

A12C U30C
kcat [1]: 0.00413 ± 0.0012 s⁻¹ | KM [4]: 3850 ± 1500 µM | self-cleavage kobs at 40 uM GlcN6P [6]: 6.11e-05 ± 7.7e-06 s⁻¹ | self-cleavage kobs at 160 uM GlcN6P [7]: 0.000121 ± 2e-05 s⁻¹ | self-cleavage kobs at 640 uM GlcN6P [5]: 0.000707 ± 9.2e-05 s⁻¹ | self-cleavage kobs at 2500 uM GlcN6P [2]: 0.00145 ± 0.0002 s⁻¹ | self-cleavage kobs at 10000 uM GlcN6P [3]: 0.00306 ± 0.00028 s⁻¹

A12G G59U
kcat [1]: 1e-05 ± 1.9e-06 s⁻¹

A12G G59C
kcat [1]: 6.79e-05 ± 1.4e-05 s⁻¹ | self-cleavage kobs at 40 uM GlcN6P [6]: < 1e-05 s⁻¹ | self-cleavage kobs at 2500 uM GlcN6P [2]: 7.69e-05 ± 2.4e-05 s⁻¹ | self-cleavage kobs at 10000 uM GlcN6P [3]: 5.86e-05 ± 1.4e-05 s⁻¹

A12U U69G C70G
kcat [1]: 2.63e-05 ± 1.3e-05 s⁻¹ | self-cleavage kobs at 160 uM GlcN6P [7]: < 1e-05 s⁻¹

Reference: the supplement of paper PMC7125110
